# Changes are numbered by the printed parent chain. Names and notes keep the numbering of the source.
# B1: -1 TCA substrate (ssDNA)
# DNA: ATTATTATTATTCAAATGGATTTATTTATTTATTTATTTATTT
# B2: -1 ACA substrate (ssDNA)
# DNA: B1 DNA with T12A
# B3: -1 GCA substrate (ssDNA)
# DNA: B1 DNA with T12G
# B4: -1 CCA substrate (ssDNA)
# DNA: B1 DNA with T12C
# B5: A3A crystallization ligand (ssDNA)
# DNA: AAAAAAATCGGGAAA
# Target: APOBEC3A D131E (Homo sapiens, UniProt P31941 SEQ:1-199, D131E)
# Test: deamination, 50 nM enzyme, 1 h 37 C
# Details: tags: myc-His, 293T; label: 3'-fluorescein
# Excerpt: (§1) FIGS. 10A-10C provide corroborating biochemical data for human A3A. FIGS. 10A and 10B show DNA cytosine deamination by human A3A (WT, wild-type) and the indicated mutant derivatives (S, substrate; P, product). The corresponding anti-MYC (A3A) and anti-TUBULIN immunoblots indicated similar levels of A3A and soluble extract in each experiment relative to controls (A3A has two bands due to alternative translation initiation from Met1 or Met13). Reactions in FIG. 10A interrogated active site mutants using a 43-nucleotide 5′-TC-containing ssDNA substrate, and reactions in FIG. 10B additionally interrogated the identity of the −1 position (A, C, G, or T) relative to the target cytosine. The results are representative of two independent experiments. FIG. 10C is a series of graphs quantifying product accumulation in dose response experiments for A3A and the indicated D131 derivatives using the same ssDNA substrates as FIG. 10B.
# (§2) Recombinant A3A-myc-His and mutant derivatives were expressed in 293T cells and purified as described by nickel affinity chromatography (Stenglein et al., supra; Li et al., supra; and Carpenter et al. 2012, supra). Activity assays were conducted as outlined above, except reactions were initiated by adding 5 μl of enzyme (2-fold dilutions starting at 200 nM) to 5 μl of 50 mM NaCl, 10 mM HEPES buffer (pH 7.4) containing 1.6 μM fluorescently labeled ssDNA (sequences above). Reactions progressed 1 hour at 37° C. and processed and quantified as described above.
# Chain of APOBEC3A D131E (P31941 whole entry D131E): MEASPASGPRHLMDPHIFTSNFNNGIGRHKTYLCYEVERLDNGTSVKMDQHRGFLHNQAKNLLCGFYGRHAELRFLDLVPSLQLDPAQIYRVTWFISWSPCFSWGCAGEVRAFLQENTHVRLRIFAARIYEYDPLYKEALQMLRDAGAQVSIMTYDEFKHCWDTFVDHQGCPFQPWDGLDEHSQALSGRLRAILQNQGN
row,Binder,activity [% product]
1,B1,27.3
2,B2,36.6
3,B3,30.8

# Target: APOBEC3A D131T (Homo sapiens, UniProt P31941 SEQ:1-199, D131T)
# Sequence (P31941 whole entry D131T): as the sequence (P31941 whole entry D131E) above, with E131T counted along it
# Test: deamination, 50 nM enzyme, 1 h 37 C
# Details: tags: myc-His, 293T; label: 3'-fluorescein
# Excerpt: as §1, §2
row,Binder,activity [% product]
1,B1,96.6
2,B2,16.6
3,B4,67.5
4,B3,14.2

# Target: APOBEC3A wild-type (Homo sapiens, UniProt P31941 SEQ:1-199)
# Sequence (P31941 whole entry): as the sequence (P31941 whole entry D131E) above, with E131D counted along it
# Test: deamination, 50 nM enzyme, 1 h 37 C
# Details: tags: myc-His, 293T; label: 3'-fluorescein
# Excerpt: as §1, §2
row,Binder,activity [% product]
1,B1,98.3
2,B2,7.6
3,B4,42.9
4,B3,13

# Target: APOBEC3A D131A (Homo sapiens, UniProt P31941 SEQ:1-199, D131A)
# Sequence (P31941 whole entry D131A): as the sequence (P31941 whole entry D131E) above, with E131A counted along it
# Test: deamination, 50 nM enzyme, 1 h 37 C
# Details: tags: myc-His, 293T; label: 3'-fluorescein
# Excerpt: as §1, §2
row,Binder,activity [% product]
1,B1,3.7
2,B2,8.7
3,B4,10.1
4,B3,4

# Target: APOBEC3A E72A (1-195) (Homo sapiens, UniProt P31941 SEQ:1-195, E72A)
# Sequence (P31941 1-195 E72A): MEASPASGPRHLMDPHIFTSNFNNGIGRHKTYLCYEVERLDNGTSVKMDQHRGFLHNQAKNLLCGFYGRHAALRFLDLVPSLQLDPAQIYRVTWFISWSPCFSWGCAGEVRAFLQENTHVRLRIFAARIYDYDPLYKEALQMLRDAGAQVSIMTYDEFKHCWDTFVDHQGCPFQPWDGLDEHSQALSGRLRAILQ
# Test: structure; crystal structure 3.15 Å, PDB 5SWW, U-shaped ssDNA, Zn
# Details: not given
# Procedure: Purified A3A and A3Bctd* were mixed with ˜1.5 molar excess ssDNA (see below) at a final protein concentration of 25-30 mg ml⁻¹. The A3A-ssDNA complex crystal was obtained in a sitting drop formed by mixing the complex solution with an equal volume of 0.2 M NaF, 20% (w/v) PEG3350, 0.1 M Bis-Tris propane (pH 6.5), equilibrated via vapor diffusion against the same reservoir solution. The A3Bctd*-ssDNA crystal was obtained similarly, using a reservoir solution consisting of 0.45 M NaI and 20% (w/v) PEG3350. The crystals were mounted directly from the Intelli-Plate 96 (Art Robbins Instruments) and flash cooled in liquid nitrogen using glycerol or ethylene glycol as cryo-protectant. X-ray diffraction data were collected at the Advanced Photon Source Northeastern Collaborative Access Team beamline 24-ID-C using the selenium K-absorption edge wavelength, and the data were processed with XDS (Kabsch, Acta Crystallogr D Biol Crystallogr 66:125-132, 2010). The A3A-DNA complex crystal is in the space group of P2221. […] Using monomeric A3A (pdb 4XXO; Bohn et al., Structure 23:903-911, 2015) as a search model, the molecular replacement calculations by PHASER (McCoy et al., J Appl Crystallogr 40:658-674, 2007) located four copies of A3A in the asymmetric unit. […]
row,Binder,binding result
1,B5,binds

# — patent US20180170984, “SITE-SPECIFIC DNA BASE EDITING USING MODIFIED APOBEC ENZYMES” (Regents of the University of Minnesota, published 2018)
